The pIC50 is the IC50 on a negative log10 scale, so that one unit is a factor of ten.

Experimental findings from patent publication US20260207759A1, “COMPOSITION OF CD40-BINDING MOLECULE AND PHARMACEUTICAL USE THEREOF” (SUZHOU SUNCADIA BIOPHARMACEUTICALS CO., LTD., priority 2022, published 2026) are described below.

This assay deals with CD40 (Homo sapiens, UniProt P25942). Put plainly: B cell activation assay system (human PBMCs, CD40L-induced CD19+CD69+). The conditions noted are these: CD40L stimulation overnight. On the set-up: endogenous in cells; host or cells: human PBMCs (B cells); DCs differentiated from human CD14+ monocytes. The assay is classed as cell-based. The protocol: CD40 is highly expressed in B cells, and CD40L, upon binding to CD40, can induce B cell activation and up-regulate the expression of a series of activation markers. CD40 antagonistic antibodies block the binding of CD40L to CD40, thereby eliminating the immune activation process of B cells.
Sequence of CD40 (P25942 21-277): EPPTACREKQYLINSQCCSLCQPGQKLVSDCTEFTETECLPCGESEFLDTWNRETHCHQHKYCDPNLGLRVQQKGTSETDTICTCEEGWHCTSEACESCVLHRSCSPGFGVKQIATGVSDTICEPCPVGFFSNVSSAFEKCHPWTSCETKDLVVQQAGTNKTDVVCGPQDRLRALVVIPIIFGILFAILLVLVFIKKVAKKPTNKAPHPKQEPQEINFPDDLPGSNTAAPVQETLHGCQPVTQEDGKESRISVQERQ
Human PBMCs were plated at 2E5 cells/well and 50 μL/well into a 96-well cell culture plate (the medium was RPMI-1640 containing 10% FBS and 1% penicillin-streptomycin). Serially diluted test antibodies were added at 50 μL/well, and the cells were co-incubated at 37° C. in 5% CO2 for 0.5 h. CD40L-his and an anti-His antibody were added to each well for overnight stimulation. The following day, the plate was centrifuged, the supernatant was removed, and the cells were washed twice with FACS buffer and stained at room temperature for 15 min with 100 μL of Fixable viability dye EF780 (Invitrogen, 65086514) diluted at 1:1000. The cells were washed twice and then blocked at room temperature for 10 min with 100 μL of human Fc blocker (BD, 564220) diluted at 1:200. After centrifugation, the cells were incubated at 4° C. for 0.5 h with flow cytometry antibodies (PerCP/Cyanine5.5 anti-human CD19 (Biolegend, 302230), and APC anti-human CD69 (Biolegend, 310910)) diluted at 1:200. After centrifugation, the supernatant was removed, the cells were washed twice with FACS buffer and then resuspended in 200 μL of PBS, and the fluorescence intensity on the cell surface was measured by a flow cytometer (BD FACS Celesta).
With reference to the method in Example 10, the inhibitory activity of the anti-CD40 antibody 9E6-L4H2-AAYTE carrying the AAYTE mutation in the Fc in the B cell activation assay system was measured.

pIC50: −log10 of the molar value. Where two headings read alike, the source gives them in different places.

Regarding “CFZ533: anti-CD40 antagonistic antibody CFZ533 (i.e., iscalimab), positive control, variable regions from U.S. Pat. No. 8,277,810B”, the “CD19+CD69+ % Maximum inhibition rate” value was 95% and the “CD19+CD69+ MFI Maximum inhibition rate” value worked out at 110%. Also, the pIC50 (read-out: CD19+CD69+ % IC50) was 9.85. Further, for the setting “read-out: CD19+CD69+ MFI IC50”, the pIC50 was 10.15.
